± gives the uncertainty stated by the source.

The nature of the data set: self-splicing fitness, log relative to wild type (ln ratio); higher = more splicing; Tetrahymena group I intron in knt gene, E. coli kanamycin selection, DiMSum; sequences stand for … in CUCUCU…GGAGGGAAAAGUUAUCAGGCAUGCACCUGGUAGCUAGUCUUUAAACCAAUAGAUUGCAUCGGUUUAAAAGGCAAGACCGUCAAAUUGCGGGAAAGGGGUCAACAGCCGUUCAGUACCAAGUCUCAGGGGAAACUUUGAGAUGGCCUUGCAAAGGGUAUGGUAAUAAGCUGACGGACAUGGUCCUAACCACGCAGCCAAGUCCUAAGUCAACAGAUCUUCUGUUGAUAUGGAUGCAGUUCACAGACUAAAUGUCGGUCGGGGAAGAUGUAUUCUUCUCAUAAGAUAUAGUCGGACCUCUCCUUAAUGGGAGCUAGCGGAUGAAGUGAUGCAACACUGGAGCCGCUGGGAACUAAUUUGUAUGCGAAAGUAUAUUGAUUAGUUUUGGAGUACUCGUGGUCG
The essentials:
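Library with all eight P1ex-region intron nucleotides randomised, intron inside the knt kanamycin-resistance gene on pET-22b(+), in E. coli BL21(DE3). Cells grew overnight at 37°C or 30°C on LB agar with or without 25 μg/mL kanamycin (plus 100 μg/mL carbenicillin, 50 μM IPTG, 0.2% rhamnose), in six replicate transformations. Pooled colonies were amplicon-sequenced on Illumina HiSeq 2500. DiMSum fitness is the error-weighted combination of wild-type-normalised replicate fold changes, kanamycin versus none.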

CACUAGCAAUAUUACGGCCU: the “self-splicing fitness (ln)” value is -2.77 ± 0.2 (30 °C) and -1.94 ± 0.18 (37 °C).

Turning to AACGAGCAAUAUUACGCUCA, the “self-splicing fitness (ln)” value (30 °C) was -1.83 ± 0.12 and the “self-splicing fitness (ln)” value (37 °C) was -0.666 ± 0.13. With ACGAAGCAAUAUUACGAGAU, the “self-splicing fitness (ln)” value runs as follows: (30 °C) -4.36 ± 0.17; (37 °C) -1.79 ± 0.16. For GGCAAGCAAUAUUACGUGGG the same measures were -3.42 ± 0.13 and -1.85 ± 0.1. For GGUUAGCAAUAUUACGGAGU the same measures were -1.27 ± 0.18 and -0.724 ± 0.2.

Consider UGAGAGCAAUAUUACGCUCA, for which, for the setting “37 °C”, the “self-splicing fitness (ln)” value is -1.22 ± 0.38. GUCGAGCAAUAUUACGCCUU: the “self-splicing fitness (ln)” value (30 °C) is -1.46 ± 0.28 and the “self-splicing fitness (ln)” value (37 °C) is -1.77 ± 0.41. With UGGGAGCAAUAUUACGCGGU, the “self-splicing fitness (ln)” value reads like this: (30 °C) -3.43 ± 0.24; (37 °C) -3.8 ± 0.33. For the sequence AAAUAGCAAUAUUACGGUCU, the “self-splicing fitness (ln)” value reads like this: (30 °C) 0.108 ± 0.076; (37 °C) -0.388 ± 0.084. The corresponding values for GCAAAGCAAUAUUACGCCUA are -3.76 ± 0.42 and -1.11 ± 0.21. With CCGGAGCAAUAUUACGCUUC, the “self-splicing fitness (ln)” value runs as follows: (30 °C) -2.55 ± 0.24; (37 °C) -0.412 ± 0.19. For UACAAGCAAUAUUACGCCGA the same measures were -1.29 ± 0.1 and -0.999 ± 0.11. Regarding UUAGAGCAAUAUUACGCGUG, the “self-splicing fitness (ln)” value reads like this: (30 °C) -0.924 ± 0.086; (37 °C) 0.00533 ± 0.11. On to AACUAGCAAUAUUACGCUCU, for which the “self-splicing fitness (ln)” value (30 °C) was -0.509 ± 0.12 and the “self-splicing fitness (ln)” value (37 °C) was 0.627 ± 0.11.

For AUCAAGCAAUAUUACGCUAC, the “self-splicing fitness (ln)” value (37 °C) is -0.41 ± 0.33. In the case of AUACAGCAAUAUUACGGUAA, the “self-splicing fitness (ln)” value (30 °C) was -0.731 ± 0.094 and the “self-splicing fitness (ln)” value (37 °C) was -0.502 ± 0.093. Turning to UGUUAGCAAUAUUACGAGAC, the “self-splicing fitness (ln)” value (30 °C) is -3.17 ± 0.37. For the sequence ACUUAGCAAUAUUACGGGGU, the “self-splicing fitness (ln)” value runs as follows: (30 °C) -2.71 ± 0.16; (37 °C) -2.73 ± 0.27. The corresponding values for UCGAAGCAAUAUUACGACUG are -1.11 ± 0.095 and -0.774 ± 0.13. For the sequence CGUGAGCAAUAUUACGACGG, the “self-splicing fitness (ln)” value reads like this: (30 °C) -0.058 ± 0.098; (37 °C) 0.525 ± 0.11. The corresponding values for AAAAAGCAAUAUUACGUGUU are -2.04 ± 0.055 and -1.22 ± 0.068. For UCUAAGCAAUAUUACGAUCU the same measures were -3.07 ± 0.23 and -2.08 ± 0.2. For AUCAAGCAAUAUUACGGCCA the same measures were -0.51 ± 0.074 and -0.264 ± 0.079. For the sequence GGGCAGCAAUAUUACGCUUC, the “self-splicing fitness (ln)” value (37 °C) was -1.85 ± 0.17.

Take CAGCAGCAAUAUUACGUCGU: the “self-splicing fitness (ln)” value by setting is: (30 °C) -3.42 ± 0.18; (37 °C) -0.9 ± 0.09. On to UCACAGCAAUAUUACGAUUA, for which the “self-splicing fitness (ln)” value was -1.43 ± 0.1 (30 °C) and -0.545 ± 0.11 (37 °C). With AAAGAGCAAUAUUACGGUCC, the “self-splicing fitness (ln)” value reads like this: (30 °C) -3.16 ± 0.44; (37 °C) -0.864 ± 0.38.

Take GAGAAGCAAUAUUACGUAGA: the “self-splicing fitness (ln)” value runs as follows: (30 °C) -2 ± 0.14; (37 °C) -0.626 ± 0.14. Take AGCGAGCAAUAUUACGAUAU: the “self-splicing fitness (ln)” value is, setting by setting: (30 °C) -4.12 ± 0.29; (37 °C) -1.99 ± 0.19. Consider GCAGAGCAAUAUUACGUUAA, for which the “self-splicing fitness (ln)” value (30 °C) is -1.87 ± 0.27 and the “self-splicing fitness (ln)” value (37 °C) is -2.64 ± 0.42. Regarding UCGCAGCAAUAUUACGGUCG, the “self-splicing fitness (ln)” value (30 °C) was -0.126 ± 0.094 and the “self-splicing fitness (ln)” value (37 °C) stood at 0.0192 ± 0.14. For the sequence CGCUAGCAAUAUUACGCAGC, the “self-splicing fitness (ln)” value (37 °C) is -2.8 ± 0.33.

With GAGAAGCAAUAUUACGCGUG, the “self-splicing fitness (ln)” value runs as follows: (30 °C) -0.423 ± 0.062; (37 °C) -0.803 ± 0.09. The corresponding values for AGGCAGCAAUAUUACGUGCG are -0.971 ± 0.082 and -0.24 ± 0.11. As to CCUCAGCAAUAUUACGCCGU, the “self-splicing fitness (ln)” value is -3.05 ± 0.23 (30 °C) and -2.08 ± 0.25 (37 °C). Consider AGAAAGCAAUAUUACGACAG, for which the “self-splicing fitness (ln)” value was -2.36 ± 0.11 (30 °C) and -0.954 ± 0.11 (37 °C).

UACUAGCAAUAUUACGCUUU: the “self-splicing fitness (ln)” value (30 °C) is -2.09 ± 0.11 and the “self-splicing fitness (ln)” value (37 °C) was -2.16 ± 0.17. With UGUUAGCAAUAUUACGGCAG, the “self-splicing fitness (ln)” value by setting is: (30 °C) 0.45 ± 0.1; (37 °C) -1.03 ± 0.12. On to CGUGAGCAAUAUUACGAACA, for which the “self-splicing fitness (ln)” value (30 °C) is -0.649 ± 0.15 and the “self-splicing fitness (ln)” value (37 °C) is -0.766 ± 0.17. In the case of CCGGAGCAAUAUUACGAAGC, the “self-splicing fitness (ln)” value (37 °C) is -2.8 ± 0.36. Take CGGCAGCAAUAUUACGCACU: the “self-splicing fitness (ln)” value is -1.45 ± 0.086 (30 °C) and -0.361 ± 0.1 (37 °C).

In the case of GUACAGCAAUAUUACGCGAA, the “self-splicing fitness (ln)” value (30 °C) is -2.24 ± 0.13 and the “self-splicing fitness (ln)” value (37 °C) is -2.22 ± 0.14.

On to UUGAAGCAAUAUUACGAAAG, for which the “self-splicing fitness (ln)” value is, setting by setting: (30 °C) -1.47 ± 0.082; (37 °C) -0.794 ± 0.1. For GGACAGCAAUAUUACGUUCC the same measures were -2.58 ± 0.3 and -2.84 ± 0.45. For CUUCAGCAAUAUUACGCUUA, the “self-splicing fitness (ln)” value runs as follows: (30 °C) -3.34 ± 0.2; (37 °C) -2.4 ± 0.17. As to AAAUAGCAAUAUUACGGACA, the “self-splicing fitness (ln)” value is -1.08 ± 0.12 (30 °C) and -0.512 ± 0.13 (37 °C).

Turning to CGCUAGCAAUAUUACGCUUA, the “self-splicing fitness (ln)” value was -3.03 ± 0.33 (30 °C) and -2.75 ± 0.27 (37 °C). With CCGAAGCAAUAUUACGUAUA, the “self-splicing fitness (ln)” value (37 °C) was -2.51 ± 0.41. Same read-out and setting: in the case of GGAUAGCAAUAUUACGGGAG it was -2.52 ± 0.21. For CAAUAGCAAUAUUACGGCGC, the “self-splicing fitness (ln)” value runs as follows: (30 °C) -3.81 ± 0.35; (37 °C) -1.37 ± 0.19. The corresponding values for AAGCAGCAAUAUUACGUGAC are -3.33 ± 0.14 and -2.38 ± 0.18. With GGAGAGCAAUAUUACGUGCA, the “self-splicing fitness (ln)” value is -1.92 ± 0.29 (30 °C) and -2.03 ± 0.32 (37 °C). For GGCGAGCAAUAUUACGUCAG the same measures were -2.33 ± 0.31 and -3.08 ± 0.4. Turning to CGCGAGCAAUAUUACGCCUU, the “self-splicing fitness (ln)” value (30 °C) is -2.45 ± 0.43. In the case of ACGAAGCAAUAUUACGGCUC, the “self-splicing fitness (ln)” value is -3.05 ± 0.22 (30 °C) and -1.62 ± 0.23 (37 °C). Turning to ACCGAGCAAUAUUACGUCGC, the “self-splicing fitness (ln)” value (30 °C) is -3.69 ± 0.28. Take UCACAGCAAUAUUACGAGAC: the “self-splicing fitness (ln)” value runs as follows: (30 °C) -4.56 ± 0.46; (37 °C) -2.61 ± 0.2. Consider AAAAAGCAAUAUUACGGAAU, for which the “self-splicing fitness (ln)” value reads like this: (30 °C) -2.25 ± 0.11; (37 °C) -1.36 ± 0.13.

On to UUCCAGCAAUAUUACGCCCA, for which the “self-splicing fitness (ln)” value is -1.38 ± 0.18 (30 °C) and -0.115 ± 0.17 (37 °C).

Regarding GAGGAGCAAUAUUACGUUUA, the “self-splicing fitness (ln)” value was -1.89 ± 0.26 (30 °C) and -1.84 ± 0.32 (37 °C). Take CGGUAGCAAUAUUACGGACG: the “self-splicing fitness (ln)” value is -0.708 ± 0.1 (30 °C) and -0.837 ± 0.13 (37 °C). For GAAGAGCAAUAUUACGAAAU, the “self-splicing fitness (ln)” value by setting is: (30 °C) -3.79 ± 0.24; (37 °C) -1.95 ± 0.23. The corresponding values for AAGUAGCAAUAUUACGAAAG are -2.94 ± 0.27 and -2.17 ± 0.25.

Consider UAGCAGCAAUAUUACGUAGU, for which the “self-splicing fitness (ln)” value was -2.15 ± 0.14 (30 °C) and -2.48 ± 0.31 (37 °C). For GCUCAGCAAUAUUACGGGCC the same measures were -2.8 ± 0.2 and -3.37 ± 0.25. For GGACAGCAAUAUUACGCCAU the same measures were -1.98 ± 0.26 and -2.03 ± 0.46. For UAAAAGCAAUAUUACGGGAC the same measures were -3.16 ± 0.13 and -2.47 ± 0.19. For the sequence CGCCAGCAAUAUUACGGGAU, the “self-splicing fitness (ln)” value (30 °C) is -3.96 ± 0.27 and the “self-splicing fitness (ln)” value (37 °C) is -2.32 ± 0.28. UAUCAGCAAUAUUACGGUAU: the “self-splicing fitness (ln)” value was -3.73 ± 0.21 (30 °C) and -2.01 ± 0.18 (37 °C). On to GACAAGCAAUAUUACGGACC, for which the “self-splicing fitness (ln)” value runs as follows: (30 °C) -1.32 ± 0.1; (37 °C) -0.785 ± 0.11. The corresponding values for ACUAAGCAAUAUUACGUUGG are -2.95 ± 0.12 and -1.73 ± 0.11. Consider GUCUAGCAAUAUUACGUCCA, for which the “self-splicing fitness (ln)” value (30 °C) was -1.07 ± 0.31 and the “self-splicing fitness (ln)” value (37 °C) is -0.455 ± 0.21. The corresponding values for UCGCAGCAAUAUUACGCCGU are -3.48 ± 0.26 and -2.99 ± 0.4.

Consider AGUUAGCAAUAUUACGUCCG, for which the “self-splicing fitness (ln)” value reads like this: (30 °C) -1.32 ± 0.15; (37 °C) -0.0933 ± 0.19.

UGUUAGCAAUAUUACGAGGU: the “self-splicing fitness (ln)” value runs as follows: (30 °C) -3.93 ± 0.28; (37 °C) -2.8 ± 0.33. For the sequence GCUUAGCAAUAUUACGAGAA, the “self-splicing fitness (ln)” value is -1.2 ± 0.27 (30 °C) and -0.264 ± 0.22 (37 °C). CGUGAGCAAUAUUACGGGUA: the “self-splicing fitness (ln)” value (37 °C) was -2.39 ± 0.38. For GCCAAGCAAUAUUACGGCGU, the “self-splicing fitness (ln)” value (30 °C) was -0.74 ± 0.067 and the “self-splicing fitness (ln)” value (37 °C) is -0.453 ± 0.1.

These data come from the supplement of paper PMC7877785.
